What was measured:
[1] = target: recombinant His-tagged HIV-1 integrase P20 (A128T/K173Q/N254K) (IN^P20) (HIV-1 (NL4-3)); experiment: SEC
[2] = target: recombinant His-tagged HIV-1 integrase P15 (A128T/K173Q) (IN^P15) (HIV-1 (NL4-3)); experiment: SEC
[3] = target: recombinant His-tagged HIV-1 integrase R269A/K273A (IN^RAKA) (HIV-1 (NL4-3)); experiment: cross-linking
[4] = target: recombinant His-tagged HIV-1 integrase P26 (A128T/H171Q/K173Q/N254K) (IN^P26) (HIV-1 (NL4-3)); experiment: cross-linking
[5] = target: recombinant His-tagged HIV-1 integrase P26 (A128T/H171Q/K173Q/N254K) (IN^P26) (HIV-1 (NL4-3)); experiment: SEC

“recombinant His-tagged HIV-1 integrase P20 (A128T/K173Q/N254K) (IN^P20) (enzyme)” showed a stoichiometry N [1] of 2.
“recombinant His-tagged HIV-1 integrase P15 (A128T/K173Q) (IN^P15) (enzyme)” gave a stoichiometry N [2] of 2.
Substance “recombinant His-tagged HIV-1 integrase R269A/K273A (IN^RAKA) (enzyme)” has a stoichiometry N [3] of 4.
In the case of “recombinant His-tagged HIV-1 integrase P26 (A128T/H171Q/K173Q/N254K) (IN^P26) (enzyme)”, the multimer ratio, dimers [4] was 19.6%, the multimer ratio, tetramers [4] was 3.3% and the stoichiometry N [4] was 4. It also gave a stoichiometry N [5] of 2.

Reference: article doi:10.1101/836718
